Results on one protein are retold here after publication PMC6429369, “Characterization of Stackebrandtia nassauensis GH 20 Beta-Hexosaminidase, a Versatile Biocatalyst for Chitobiose Degradation” (International Journal of Molecular Sciences, 2019).

Substrate in data set [1]: CC(=O)N[C@H]1[C@H](Oc2ccc([N+](=O)[O-])cc2)O[C@H](CO)[C@@H](O)[C@@H]1O
The experiment in a line: purified protein. Format: biochemical, Stackebrandtia nassauensis. Particulars: 50 mM phosphate-citric acid buffer pH 6.0, 37 °C, substrate 0.01-10 mM.

Substrate in data set [2]: CC(=O)N[C@H]1[C@H](Oc2ccc([N+](=O)[O-])cc2)O[C@H](CO)[C@H](O)[C@@H]1O
The experiment in a line: purified protein. The format is biochemical, Stackebrandtia nassauensis. Particulars: 50 mM phosphate-citric acid buffer pH 6.0, 37 °C, substrate 0.01-10 mM.

B1: SnHex (Stackebrandtia nassauensis GH20 beta-N-acetylhexosaminidase) (Stackebrandtia nassauensis DSM 44728) (protein)
chain: VADPSHAKAATPSTIPALGEWTAASGTYTYSESSRLVVDPDHADELTDEAQTAAADLAALTGTEPEVVTGEPETGDVSLALGGGEPLGAEGYSLDVGDTFAITANADAGAFYGTRTLLQLVKQDKQIPAGTATDVPKKPERGLMVDVGRKYMSVEWLKKHIKDLSYAKLNYFHLHLSDTFGFRLESETHPEVTSEDHYTKAEIRELVDLAAKYHVTLVPEIDVPGHVNAMLAQHPELQLEDQSGNKDPYFLDLSNPDAYTLVEDLIKEYLPLFPGPYWHIGADEYVGDYGKYPQLEAYAKEHYGPDAVGKDAYYGFINWANEIVRDGGKTTRMWNDGIKEGDGTIAPEANIVVDYWSTHGIDPQKLLDRGHTVMNASWTPTYYVLGGTDIDRRWLYEDWNPDLFEKTLTIDDPKRNLGSKIHVWCDHPDAQTEDQITEGIRLPLRGLAQQTWGSPKLVEGYDDFVAIDDAIGRAPGFSSL
notes: full ORF, 1578 bp, 526 residues, about 58 kDa; pET-30a in E. coli BL21(DE3) lacZ-; Ni-NTA and anion exchange; N-terminal His/thrombin/S-tag/enterokinase by cloning (text elsewhere says C-terminal His6), tags kept; primers translate to N-term VADPSH (after ATG), C-term GFSSL-stop
A word on the Km: it is the concentration of substrate that gives half-maximal velocity. As a reminder, the Vmax is the top rate of the reaction or transport when substrate is in excess. For orientation: kcat means the maximal rate divided by the concentration of active sites. Usually kcat/Km stands for the second-order rate constant that governs catalysis at low substrate concentration. In the case of B1, in data set [1], the Km was 2470 ± 50 µM, the maximal velocity (Vmax) turned out to be 57 µM/min/mg, the catalytic constant (kcat) stood at 0.917 ± 0.0615 s⁻¹ and the kcat/Km is 372 ± 33.3 M⁻¹ s⁻¹. In data set [2], the Michaelis constant (Km) was determined as 3290 ± 320 µM, the Vmax is 44 µM/min/mg, the kcat is 0.712 ± 0.0477 s⁻¹ and the specificity constant (kcat/Km) was determined as 217 ± 38.3 M⁻¹ s⁻¹.
